Measurements published in US7893027B2, “Treatment of ocular wounds and ulcers” (The Board of Regents of the University of Oklahoma, priority 2002, dated 2011).

How the values were obtained:
Experiment in all cases: RT-PCR of adhesion molecule mRNA in HCEC
Assay type in all cases: cell-based, human
E-selectin = settings: CAP37 1 μg/ml, 0-24 hr
Method: (§1) Cultured HCEC were treated with CAP37 (1 μg/ml) for 0-24 hr at 37° C. Total cellular RNA was isolated from untreated and treated HCEC according to vendor specifications (TRIzol™, GIBCO BRL). After reverse-transcription of 5 μg of total RNA by SuperScript™ II RT (GIBCOBRL) the resulting single stranded cDNA was amplified by PCR (BIOMETRA TGRADIENT, Göttingen, Germany) using specific primers for ICAM-1 (([…] (SEQ ID NO:11) and […] (SEQ ID NO:12)); VCAM-1 (([…] (SEQ ID NO:13) and […] (SEQ ID NO:14)); PECAM-1 (([…] (SEQ ID NO:15) and […] (SEQ ID NO:16)); E-selectin (([…] (SEQ ID NO:17) and […] (SEQ ID NO:18)); and β-actin ((TACCTCATGAAGATCCTCA (SEQ ID NO:19) and TTCGTGGATGCCACAGGAC (SEQ ID NO:20))) synthesized by the Molecular Biology Resource Facility, University of Oklahoma Health Sciences Center. The thermocycler conditions for ICAM-1 and VCAM-1 were 95° C. for 5 min initially, with 30 cycles at 95° C. for 1 min, 58° C. for 45 sec, 72° C. for 1 min followed by a final extension at 72° C. for 7 min. The conditions for E-selectin were 95° C. for 5 min initially, with 30 cycles at 94° C. for 1 min, 58° C. for 1 min, 72° C. for 1 min followed by a final extension at 72° C. for 5 min. The conditions for PECAM-1 were 95° C. for 5 min initially, with 30 cycles at 95° C. for 45 sec, 60° C. for 1 min, 72° C. for 1 min followed by a final extension at 72° C. for 5 min.
(§2) Amplified DNA fragments were separated by electrophoresis on a 1% agarose gel and visualized by exposure to UV after ethidium bromide (0.5 μg/ml) staining. Expected sizes for ICAM-1, VCAM-1, PECAM-1, E-selectin and β-actin were 943 bp, 700 bp, 677 bp, 315 bp and 267 bp, respectively. To assess the integrity of the cDNA, primers for human β-actin were used.

ICAM-1 = settings: CAP37 1 μg/ml, beginning at 2 hr and lasting through 24 hr
Method: as §1, §2

PECAM-1 = settings: CAP37 1 μg/ml
Method: as §1, §2

VCAM-1 = settings: CAP37 1 μg/ml, 0-24 hr
Method: as §1, §2

B1: CAP37: Cationic Antimicrobial Protein of Mr 37 kDa; recombinant protein from human 293 cells, identical to native PMN-derived CAP37 (SEQ ID NO:1) (protein, listed as Homo sapiens)
chain: IVGGRKARPRQFPFLASIQNQGRHFCGGALIHARFVMTAASCFQSQNPGVSTVVLGAYDLRRRERQSRQTFSISSMSENGYDPQQNLNDLMLLQLDREANLTSSVTILPLPLQNATVEAGTRCQVAGWGSQRSGGRLSRFPRFVNVTVTPEDQCRPNNVCTGVLTRRGGICNGDGGTPLVCEGLAHGVASFSLGPCGRGPDFFTRVALFRDWIDGVLNNPGP
mRNA expression of E-selectin (E-selectin): did not show increase in mRNA expression
ICAM-1 message (ICAM-1): clear upregulation of ICAM-1 message
Time PECAM-1 message first detected after stimulation (PECAM-1): 2 h
Time of maximum PECAM-1 message (PECAM-1): 4 h
PECAM-1 message (PECAM-1; transient, not detected after 6 hr): upregulated
mRNA expression of VCAM-1 (VCAM-1): did not show increase in mRNA expression
